Assay results published in paper PMC7824358, “The Influence of the Mixed DPC:SDS Micelle on the Structure and Oligomerization Process of the Human Cystatin C” (Membranes, 2020).

What was measured:
[1] = biological target: human cystatin C V57P variant (human) (UniProt P01034); assay: SEC; analytical gel filtration, Superdex 75 PC 3.2/30, eluted with PBS; protein 30 μM in PBS incubated 24 h at 22 °C with dilution series of DPC:SDS (5:1) mixed micelle, DPC or SDS; dimer retention ca. 13.5 min, monomer ca. 16 min; dimer to monomers
[2] = biological target: the molecule itself; assay: SEC; hCC WT incubated 24 h in 25 mM sodium acetate buffer pH 4.0, 150 mM NaCl, 1 mM benzamidine hydrochloride; dimer separated from monomer on Superdex 75 10/300 GL; monomer to dimer

human cystatin C V57P variant (from UniProt P01034 27-146) (natural protein)
stoichiometry N [1]: 2

B1: human cystatin C (hCC) wild-type (natural protein, UniProt P01034 27-146, looked up)
chain: SSPGKPPRLVGGPMDASVEEEGVRRALDFAVGEYNKASNDMYHSRALQVVRARKQIVAGVNYFLDVELGRTTCTKTQPNLDNCPFHDQPHLKRKAFCSFQIYAVPWQGTMTLSKSTCQDA
notes: human cystatin C, expressed from the pHD313 vector behind the E. coli OmpA signal peptide; Used as a monomer sample and as a dimer sample made by incubation at pH 4.0 and separated by SEC; also called hCC WT; WT
stoichiometry N [2]: 2
